Source: the supplement of paper PMC10724198
± gives the standard deviation of the averaged measurements.

These sequences were tested on Saccharomyces cerevisiae (assay: protein stability index of tFT-peptide fusion (C-terminal peptide) (PSI (0-1 scale)); higher = more stable (slower turnover)). Conditions: genetic background: wild type; temperature: 30 C.
Protocol: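 Multiplexed protein stability (MPS) profiling in S. cerevisiae. Random 12-aa peptides (tFT-X12 library) are fused to the C-terminus of a sfGFP-mCherry tandem fluorescent timer, after mCherry and a GGGS linker. Cells are FACS-sorted into 8 mCherry/sfGFP bins and deep-sequenced. The protein stability index (PSI) is the read-weighted bin average, scaled from 0 (unstable) to 1 (stable). Only peptides with >10 reads are reported; cells were grown at 30 °C in SC-His with glucose.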
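Also: PSI is a weighted mean of sequencing reads over stability bins, variants kept only with over 10 reads, mCherry proximal and sfGFP distal, peptide attached via GGGS linker.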

Sequence | protein stability index
SPPPTSHPSAPP | 0.638 ± 0.056
LWGYFRTAASFV | 0.645 ± 0.095
VGPSGLIRCSFC | 0.712 ± 0.029
TTLFLPAGYACR | 0.707 ± 0.037
PPHPLPPPSPPF | 0.682 ± 0.034
ELKGRQLGSNLK | 0.691 ± 0.045
PLPLFGPRLSPP | 0.875 ± 0.065
LWAQRASPPWYQ | 0.606 ± 0.047
NTTKLEKRGNIE | 0.574 ± 0.084
LGLGPKNLSYSE | 0.676 ± 0.043
SGVLRLSGTGAV | 0.688 ± 0.0018
WWSFVGACDGVG | 0.549 ± 0.012
SPLPPPPHPSPF | 0.505 ± 0.017
ERCLRYRTVVDW | 0.632 ± 0.063
GLRLGRVWVGGW | 0.6647 ± 0.0026
GVGLKMLSVGDI | 0.6119 ± 0.002
GVSAPGDAGAVP | 0.654 ± 0.015
LLPSSPRTFPLL | 0.6731 ± 0.0008
LLLPPLPPLSLS | 0.7135 ± 0.0058
WGLGGVCAVRGS | 0.575 ± 0.094
ALSHGPAPRTRS | 0.649 ± 0.048
SLRLMTFPPLLL | 0.68 ± 0.08
VMWNLVCLRRSQ | 0.6271 ± 0.0012
GGLGGWAECGRW | 0.748 ± 0.11
AVLPSLWLWTKK | 0.682 ± 0.095

Sequence | protein stability index
GPPPAPPPLDAL | 0.734 ± 0.053
QVPDPSVNQPPS | 0.699 ± 0.028
FNNTSFALRSQA | 0.741 ± 0.029
EVKERGRGCREG | 0.659 ± 0.03
RSPPAPRFLPAP | 0.652 ± 0.049
DSSCLVWYRCGC | 0.719 ± 0.083
RRVPVVSRSGGG | 0.697 ± 0.043
AYRITRSRGTEF | 0.7233 ± 0.0036
RGWVEWGVRASE | 0.749 ± 0.06
ARGGIGTCSWGW | 0.743 ± 0.074
VSDMILSATFCM | 0.643 ± 0.042
PFPPPPPPPMPT | 0.691 ± 0.05
MWVCGFVGGGGG | 0.654 ± 0.035
PPLSPRLLWSPV | 0.711 ± 0.0044
ISRLLMAMESRN | 0.653 ± 0.024
CCRRWSLEWGRG | 0.717 ± 0.038
EYGSWIRTASRV | 0.726 ± 0.016
PFPLPPLCPPAA | 0.722 ± 0.064
GVSVGGSSGGSG | 0.6868 ± 0.0048
NKKIEDYDKNKN | 0.6835 ± 0.00098
PWPLPLPPSSLP | 0.684 ± 0.018
KKKKKKKETKKR | 0.661 ± 0.047
KLVGSLLSPDSE | 0.724 ± 0.015
QPPPPPPRPPPP | 0.504 ± 0.016
PCSLPLVLSFPH | 0.6846 ± 0.0037

Sequence | protein stability index
AAPPHLTSHPPL | 0.811 ± 0.19
PSSRRRLLPPPH | 0.71 ± 0.12
DARALMGEGGSV | 0.651 ± 0.016
KELPAGRQSEPD | 0.636 ± 0.034
YSGLNRVPDFCH | 0.676 ± 0.039
ATQVGGPTHSHP | 0.7016 ± 0.0031
LASVSNFLASGK | 0.72 ± 0.058
WVKPVRAWTILR | 0.605 ± 0.025
PHRPTALALHWF | 0.66 ± 0.0067
GQNASYFPRRTG | 0.643 ± 0.052
GLSHPPNFLPSG | 0.6505 ± 0.00088
PPPPLPFSPPDP | 0.681 ± 0.044
ATPPSPLPPSPP | 0.754 ± 0.061
YDGGLAALQVLL | 0.68 ± 0.051
LKKKSHRIKRSI | 0.58471 ± 0.00035
GAWFSWLGEVVG | 0.701 ± 0.075
PPSPRLFRFLPP | 0.631 ± 0.074
VSGCVCAAADVL | 0.696 ± 0.027
VPVITLGSRISG | 0.658 ± 0.0088
LGLGIWDCFCVL | 0.685 ± 0.018
MGACGGRVGKFG | 0.662 ± 0.035
QEKTKTYPIPQR | 0.688 ± 0.041
GTDGGRSSLGCR | 0.718 ± 0.026
MHATWTLRRHGH | 0.523 ± 0.04
RLPRRSVGRSTG | 0.673 ± 0.078

Sequence | protein stability index
KNQKTTKKKKKI | 0.543 ± 0.019
HSFASTWYSSPG | 0.685 ± 0.0076
FSSARSPLLSRL | 0.705 ± 0.041
LIQKQTGKKKKP | 0.7279 ± 0.0051
SFLIADLPSTPP | 0.763 ± 0.13
GLRRTGRISGSV | 0.7 ± 0.0076
VDCGPLSIEGGR | 0.649 ± 0.018
PPPPVPLPPPRL | 0.713 ± 0.021
KIRDECFQPVNR | 0.674 ± 0.059
AARRVARTTSFC | 0.6728 ± 0.0019
APLLTRRLPTAH | 0.785 ± 0.025
GVDDGGGCCRVR | 0.773 ± 0.009
LWSYFLGLHPSD | 0.773 ± 0.038
CCGDAVVGPRVV | 0.711 ± 0.041
QAKKSLTTKTSD | 0.658 ± 0.024
VLDFRGELGLLG | 0.699 ± 0.025
HSRPRRQPPHSP | 0.705 ± 0.018
LLRLMSPTPFTP | 0.703 ± 0.037
LPPAPAPPQCST | 0.675 ± 0.052
ICGLLFNLCKHD | 0.622 ± 0.045
CVVRSGIGFSLL | 0.741 ± 0.026
GGREWRGGQGEV | 0.669 ± 0.12
RARGQPTKDIAS | 0.643 ± 0.018
SWYQPSLREYAQ | 0.74268 ± 0.00062
PLHPPCLPPSRL | 0.814 ± 0.043

Sequence | protein stability index
RESPYSRSRCLL | 0.733 ± 0.17
YEKWIKKCNKEE | 0.689 ± 0.068
GRFKLCWWCCGV | 0.724 ± 0.035
LFTGPPPSPPPP | 0.699 ± 0.034
SWCDKGSCLVDE | 0.695 ± 0.07
LPPSLPTHLSHP | 0.7629 ± 0.0041
GLSIVGAALHSA | 0.663 ± 0.025
GVGVLGGGYMCL | 0.647 ± 0.069
EERVEYHVALEV | 0.664 ± 0.024
TGHFSTTPPRPH | 0.714 ± 0.077
VAQKARSVRFSI | 0.722 ± 0.1
KVLTTISRAINK | 0.604 ± 0.012
GLQFYPFLSVVR | 0.617 ± 0.013
TTRPTRGRPSSG | 0.682 ± 0.058
PPSLCPPPSLLF | 0.733 ± 0.013
GEGNAIGQVVRN | 0.681 ± 0.021
GHSNVTSQIRRG | 0.643 ± 0.017
NRVRVNSSYGRD | 0.71 ± 0.018
PLLPPLPATSHT | 0.786 ± 0.14
SLYRSAARHLGI | 0.754 ± 0.037
IAYGCCYKELII | 0.63 ± 0.046
TLCLPPPVAWQH | 0.6544 ± 0.0047
SRPFAILLCAEK | 0.62 ± 0.015
RNKKKKNKNEKE | 0.705 ± 0.0073
MAARGTEQGTMP | 0.71 ± 0.061

Sequence | protein stability index
VYASMFRAAWPF | 0.746 ± 0.076
NALGRPSAFILT | 0.695 ± 0.057
FPAYRPARLTPA | 0.606 ± 0.033
NAVSFVKGRLVY | 0.657 ± 0.028
SFFLMTPPPSLR | 0.698 ± 0.12
SDTPTHVLGPPY | 0.716 ± 0.038
SSPSPPSLLPSL | 0.70987 ± 0.00056
WGRCVRGGRPWG | 0.567 ± 0.021
HLRSALSVHPTL | 0.707 ± 0.051
FFPSSPFLPPPR | 0.657 ± 0.1
PDEFIAKRWNST | 0.62 ± 0.012
SPCPPPPAHPPR | 0.728 ± 0.026
SSHSPFSPVLLP | 0.71 ± 0.017
FLLYGWTRPSCQ | 0.735 ± 0.062
SGTGRINWEGFL | 0.709 ± 0.03
AHLLFGFGAPVS | 0.714 ± 0.15
ERVWRAALAPVV | 0.618 ± 0.045
GGGGGGGSRTGA | 0.691 ± 0.037
FSLLLSFPCSYL | 0.601 ± 0.021
ASPFASCPPSLP | 0.714 ± 0.037
KGRTEKRGEKRT | 0.717 ± 0.017
ADCLSCRVLIVM | 0.484 ± 0.075
LGVCVGFRLLWV | 0.579 ± 0.026
GFVPWVCGVRMS | 0.689 ± 0.051
AFPHDYCRFFLP | 0.612 ± 0.048

Sequence | protein stability index
VCGLTLSVCTFG | 0.567 ± 0.0068
GGVRGERSDLRT | 0.712 ± 0.028
PTPRPTRSPPPP | 0.689 ± 0.01
PPVLQPLLALAL | 0.535 ± 0.015
PLPLPLLPPPLP | 0.764 ± 0.11
QFGPSENVEFRS | 0.742 ± 0.036
RSGAAREVSGGA | 0.7546 ± 0.0052
LASCAFQFLASC | 0.691 ± 0.098
HPLPPTGPPSPS | 0.77 ± 0.041
GVLGSIQLFLGI | 0.699 ± 0.0091
GCLVGRGQRGTE | 0.686 ± 0.026
LLGDPGDFFPAS | 0.713 ± 0.028
PPQSPPPGSPPP | 0.649 ± 0.013
FSFFPLLARYFF | 0.499 ± 0.0052
AIDGVREDTSVE | 0.704 ± 0.18
KHEKGEKNKIEK | 0.664 ± 0.055
GGFSLTGSLCID | 0.687 ± 0.035
GGGNRGTGCDWG | 0.628 ± 0.013
SHTRPRPPLHLP | 0.68 ± 0.038
GNRWSLTVTPNR | 0.69 ± 0.028
WPRVCPFSLYDA | 0.723 ± 0.012
TWIGRLGAGLPF | 0.779 ± 0.074
RAKLKKNKRRCK | 0.719 ± 0.0067
KKTITNNCPSYD | 0.6638 ± 0.0066
QSWVNIGCRGAW | 0.72 ± 0.012

Sequence | protein stability index
VVLGFGPRFRVV | 0.584 ± 0.018
LGSIKCKLSSGI | 0.666 ± 0.052
GGPSLTRCAAFG | 0.677 ± 0.063
AVTLAPPRLRPL | 0.761 ± 0.029
ADMTRSRYMGRS | 0.692 ± 0.033
PFRSPYQRPLHY | 0.689 ± 0.039
PPSPSPPSPPSP | 0.654 ± 0.032
HLPPLPRPPSLT | 0.7049 ± 0.0069
PLPPPPPDILTP | 0.743 ± 0.013
GGQRPKRQQLTT | 0.7022 ± 0.0058
VKSQRISVMIKK | 0.689 ± 0.022
SSLPVPGPFVND | 0.69 ± 0.066
IICDIFYCSTVS | 0.644 ± 0.01
PSGHQAPEMQYL | 0.667 ± 0.022
SPPHPRPPTLRT | 0.609 ± 0.013
LSVFAFRGVFRF | 0.638 ± 0.045
GFSSVPFFPLSR | 0.7142 ± 0.003
PPLPPVPSPPPP | 0.654 ± 0.025
KNKIKITKRKRK | 0.734 ± 0.0099
ETNSSSEFPLNF | 0.755 ± 0.0089
GWIAEFGLAGGP | 0.661 ± 0.0089
